From publication PMC5458252, “Niclosamide is a potential therapeutic for familial adenomatosis polyposis by disrupting Axin-GSK3 interaction” (Oncotarget, 2017)

Molecular target: T1, His-tagged recombinant GSK3β (UniProt P49841 1-420)
T1 construct: GSK3β, recombinant; source: sf9 insect cells, recombinant, purified
Experiment: SPR; ProteOn XPR36; GSK3β immobilised on a GLH sensor chip; peptides in PBS with Tween 20 and 1% DMSO flowed at 100 μl/min; Langmuir model
Settings: both partners purified

T1 sequence (P49841 whole entry): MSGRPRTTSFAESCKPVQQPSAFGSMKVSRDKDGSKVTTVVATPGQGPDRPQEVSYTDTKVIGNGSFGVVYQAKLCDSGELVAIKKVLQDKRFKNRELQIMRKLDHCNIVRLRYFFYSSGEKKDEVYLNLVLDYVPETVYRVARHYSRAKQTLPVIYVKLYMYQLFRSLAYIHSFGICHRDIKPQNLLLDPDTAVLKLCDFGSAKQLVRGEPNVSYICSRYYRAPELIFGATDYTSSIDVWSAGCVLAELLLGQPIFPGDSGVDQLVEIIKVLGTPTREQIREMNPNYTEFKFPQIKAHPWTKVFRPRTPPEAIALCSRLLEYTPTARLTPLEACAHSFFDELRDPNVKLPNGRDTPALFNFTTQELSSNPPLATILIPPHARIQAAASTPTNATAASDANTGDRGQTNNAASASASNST

Kd: 11.9 µM
B1: 19-mer wild type Axin peptide (peptide)
peptide: VEPQKFAEELIHRLEAVQR
notes: Axin1, residues 383-401; source: synthetic peptide
